Experiment [1] deals with T1, recombinant Fc-tag-fused human Notch-1 extracellular domain (Homo sapiens, UniProt P46531).
T1 construct: Notch-1, human, extracellular domain; No catalogue number and no residue limits are printed; also called N1; source: bought: R&D Systems
Nature of the experiment: ELISA; multi-point Fab-ELISA: target immobilised at 5 ug/ml on MaxiSorp plates; purified Fab 0.01 nM-1 uM in PT for 30 min; detected with HRP-conjugated anti-HIS antibody; EC50 from a one-site specific-binding fit. The conditions noted are these: both partners purified. (ELISA stands for enzyme-linked immunosorbent assay.)
T1 sequence (P46531 19-1735): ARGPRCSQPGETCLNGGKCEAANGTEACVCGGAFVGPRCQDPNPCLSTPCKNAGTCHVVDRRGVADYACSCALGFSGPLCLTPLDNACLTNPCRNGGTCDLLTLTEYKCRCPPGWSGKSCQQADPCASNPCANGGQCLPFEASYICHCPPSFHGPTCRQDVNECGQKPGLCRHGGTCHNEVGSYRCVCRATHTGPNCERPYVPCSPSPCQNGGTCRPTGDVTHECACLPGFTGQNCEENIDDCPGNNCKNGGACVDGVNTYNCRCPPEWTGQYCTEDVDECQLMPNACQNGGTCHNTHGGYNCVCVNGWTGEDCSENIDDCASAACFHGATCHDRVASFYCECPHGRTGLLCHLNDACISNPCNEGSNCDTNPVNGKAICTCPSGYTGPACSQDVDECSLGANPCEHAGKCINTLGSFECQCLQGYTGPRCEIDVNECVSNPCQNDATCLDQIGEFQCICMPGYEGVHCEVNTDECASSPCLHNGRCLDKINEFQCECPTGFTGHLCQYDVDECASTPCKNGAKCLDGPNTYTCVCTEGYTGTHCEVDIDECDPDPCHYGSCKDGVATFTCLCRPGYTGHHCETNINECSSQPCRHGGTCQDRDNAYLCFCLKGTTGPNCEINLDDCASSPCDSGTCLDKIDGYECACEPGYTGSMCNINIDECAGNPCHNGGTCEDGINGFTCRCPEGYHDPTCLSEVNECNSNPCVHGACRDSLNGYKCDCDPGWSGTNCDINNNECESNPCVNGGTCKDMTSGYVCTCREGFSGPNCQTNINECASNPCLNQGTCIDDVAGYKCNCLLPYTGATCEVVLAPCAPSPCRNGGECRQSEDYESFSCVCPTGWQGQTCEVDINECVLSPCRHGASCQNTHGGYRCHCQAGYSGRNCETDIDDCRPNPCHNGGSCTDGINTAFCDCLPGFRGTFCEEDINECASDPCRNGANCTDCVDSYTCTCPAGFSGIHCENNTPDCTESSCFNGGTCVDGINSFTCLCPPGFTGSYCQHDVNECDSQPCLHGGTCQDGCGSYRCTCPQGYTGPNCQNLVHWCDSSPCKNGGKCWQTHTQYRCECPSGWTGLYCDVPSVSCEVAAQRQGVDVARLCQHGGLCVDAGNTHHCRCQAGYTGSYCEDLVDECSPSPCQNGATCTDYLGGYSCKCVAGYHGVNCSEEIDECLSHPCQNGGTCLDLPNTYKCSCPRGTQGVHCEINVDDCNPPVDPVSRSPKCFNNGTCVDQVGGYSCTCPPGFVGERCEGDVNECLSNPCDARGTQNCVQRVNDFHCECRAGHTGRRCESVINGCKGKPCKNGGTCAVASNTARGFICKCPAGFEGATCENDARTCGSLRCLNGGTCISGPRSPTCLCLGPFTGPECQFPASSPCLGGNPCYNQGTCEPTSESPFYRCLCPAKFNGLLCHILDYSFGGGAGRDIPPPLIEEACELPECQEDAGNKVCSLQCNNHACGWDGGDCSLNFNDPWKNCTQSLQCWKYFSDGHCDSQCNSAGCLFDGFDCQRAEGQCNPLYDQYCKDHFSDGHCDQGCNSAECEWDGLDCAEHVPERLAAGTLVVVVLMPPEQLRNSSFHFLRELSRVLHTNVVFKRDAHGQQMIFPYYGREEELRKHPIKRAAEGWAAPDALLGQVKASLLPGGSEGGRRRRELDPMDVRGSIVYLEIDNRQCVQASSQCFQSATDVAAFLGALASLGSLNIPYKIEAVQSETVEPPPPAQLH

In experiment [2] the target is T1, recombinant Fc-tag-fused human Notch-1 …. Nature of the experiment: BLI; Octet RED384; Fabs immobilised on amine-reactive generation-2 or anti-Fab CH1 biosensors, target proteins in solution at three or more concentrations; 25 C, PBS; global 1:1 fit; apparent KD (Fc-Notch proteins may dimerize, avidity). Conditions: both partners purified.
Experiment [3] deals with T2, Jagged-2 receptor ectodomain (Homo sapiens (assumed), UniProt Q9Y219).
T2 construct: Jagged-2 ectodomain; it may be an Fc fusion like the Notch proteins; also called J2
T2 sequence (Q9Y219 27-1080): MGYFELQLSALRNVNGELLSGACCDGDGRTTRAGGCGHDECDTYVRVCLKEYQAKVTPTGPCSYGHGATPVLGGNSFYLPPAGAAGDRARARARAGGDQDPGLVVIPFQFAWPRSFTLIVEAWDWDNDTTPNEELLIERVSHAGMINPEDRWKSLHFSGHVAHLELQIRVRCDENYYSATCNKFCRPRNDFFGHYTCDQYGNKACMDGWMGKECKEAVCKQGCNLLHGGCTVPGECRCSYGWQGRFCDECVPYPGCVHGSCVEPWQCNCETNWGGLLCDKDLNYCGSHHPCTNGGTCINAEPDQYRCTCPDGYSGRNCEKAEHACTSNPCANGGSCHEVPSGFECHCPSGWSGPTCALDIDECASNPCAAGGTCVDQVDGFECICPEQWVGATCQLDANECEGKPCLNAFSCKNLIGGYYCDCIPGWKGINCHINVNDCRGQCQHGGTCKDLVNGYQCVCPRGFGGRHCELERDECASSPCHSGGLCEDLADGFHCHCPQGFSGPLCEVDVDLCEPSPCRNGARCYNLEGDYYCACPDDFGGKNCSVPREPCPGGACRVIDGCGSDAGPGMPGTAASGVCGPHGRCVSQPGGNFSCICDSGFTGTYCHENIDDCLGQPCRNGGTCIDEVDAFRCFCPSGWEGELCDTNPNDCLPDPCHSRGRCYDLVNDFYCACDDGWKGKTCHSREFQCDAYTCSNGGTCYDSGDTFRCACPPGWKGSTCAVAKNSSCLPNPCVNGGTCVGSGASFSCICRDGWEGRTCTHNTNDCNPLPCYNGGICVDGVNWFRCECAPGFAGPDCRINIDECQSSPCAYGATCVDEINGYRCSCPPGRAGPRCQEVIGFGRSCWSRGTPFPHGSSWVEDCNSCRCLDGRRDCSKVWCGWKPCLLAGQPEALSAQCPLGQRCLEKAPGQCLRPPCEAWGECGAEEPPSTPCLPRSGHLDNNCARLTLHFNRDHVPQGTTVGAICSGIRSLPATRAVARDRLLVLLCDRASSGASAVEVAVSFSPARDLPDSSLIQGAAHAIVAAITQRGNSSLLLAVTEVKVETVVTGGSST
Briefly: ELISA; single-point Fab-ELISA for specificity: proteins immobilised at 5 ug/ml on MaxiSorp plates; purified Fab at 1 uM; detected with HRP-conjugated anti-HIS antibody, Abs450. Conditions: both partners purified.

In experiment [4] the target is T3, recombinant Fc-tag-fused human Notch-1 extracellular domain (Homo sapiens, UniProt P46531).
T3 construct: Notch-1, human, extracellular domain; the R&D Systems product may hold only part of the ectodomain (surmise); also called N1; Fc-Notch; source: bought: R&D Systems
Nature of the experiment: BLI; Fabs immobilised on amine-reactive generation-2 or anti-Fab CH1 biosensors, target proteins in solution at at least three concentrations; 25°C, PBS; global fit to a 1:1 binding model; apparent constants (Fc fusions may dimerize). Conditions: both partners purified. A general note: BLI is a label-free optical method that tracks binding on a fibre tip over time.
T3 sequence (P46531 19-1735): as the sequence (P46531 19-1735) above

In experiment [5] the target is T1, recombinant Fc-tag-fused human Notch-1 …. Nature of the experiment: ELISA; phage-ELISA: Notch-1 and control proteins immobilised at 5 ug/ml on MaxiSorp plates; phage-displayed Fab at 10^12 PFU/ml in PBT for 30 min; detected with HRP-conjugated anti-M13 antibody, Abs450. The conditions noted are these: one partner purified.

B1: Fab N1/F/2 (purified soluble Fab) (Fab, V domains shown)
VH: EVQLVESGGGLVQPGGSLRLSCAASGFNLSSYSIHWVRQAPGKGLEWVASISSSYGYTYYADSVKGRFTISADTSKNTAYLQMNSLRAEDTAVYYCARGYYAFDYWGQGTLVTVSS
VL: DIQMTQSPSSLSASVGDRVTITCRASQSVSSAVAWYQQKPGKAPKLLIYSASSLYSGVPSRFSGSRSGTDFTLTISSLQPEDFATYYCQQWWSFPLITFGQGTKVEIK
notes: light chain on the modified trastuzumab framework of Library-F (Persson et al., 2013); CDRs L1 and L2 fixed; Fab heavy chain on the modified trastuzumab framework of Library-F; short CDRH3; The Fab is detected by an anti-HIS antibody; source: E. coli BL21, purified (Protein-L resin)
One may read the EC50 as the midpoint of the concentration-response curve. As to B1, the EC50 in experiment [1] was about 4 nM. In addition, in experiment [2], the Kd stood at 0.45 ± 0.05 nM.

B2: Fab N1/F/3 (purified soluble Fab) (Fab, V domains shown)
VH: EVQLVESGGGLVQPGGSLRLSCAASGFNLYSYYIHWVRQAPGKGLEWVASISSYYGYTSYADSVKGRFTISADTSKNTAYLQMNSLRAEDTAVYYCARYWHGALDYWGQGTLVTVSS
VL: DIQMTQSPSSLSASVGDRVTITCRASQSVSSAVAWYQQKPGKAPKLLIYSASSLYSGVPSRFSGSRSGTDFTLTISSLQPEDFATYYCQQGYFTYLFTFGQGTKVEIK
notes: as for B1
On to B2, for which the binding result in experiment [3] is “binds”. The EC50 in experiment [1] was about 4 nM. The Kd in experiment [2] worked out at 1.88 nM.

B3: Fab N1/F/2 (Fab, V domains shown)
VH: EVQLVESGGGLVQPGGSLRLSCAASGFNLSSYSIHWVRQAPGKGLEWVASISSSYGYTYYADSVKGRFTISADTSKNTAYLQMNSLRAEDTAVYYCARGYYAFDYWGQGTLVTVSS
VL: DIQMTQSPSSLSASVGDRVTITCRASQSVSSAVAWYQQKPGKAPKLLIYSASSLYSGVPSRFSGSRSGTDFTLTISSLQPEDFATYYCQQWWSFPLITFGQGTKVEIK
notes: Library-F Fab on a modified trastuzumab framework; Library-F Fab on a modified trastuzumab framework, CDRs L1 and L2 fixed; The Fab has a His tag (detected with anti-HIS antibody and biosensors); Library-F framework: Persson et al., 2013; source: E. coli BL21, purified (Protein-L resin)
As a reminder, the koff is a measure of how fast the partners let go of each other. As usually defined, the kon is a measure of how fast the partners come together. On to B3, for which, in experiment [4], the koff turned out to be 0.000123 s⁻¹ and the kon came to 322000 M⁻¹ s⁻¹.

B4: Fab N1/F/3 (Fab, V domains shown)
VH: EVQLVESGGGLVQPGGSLRLSCAASGFNLYSYYIHWVRQAPGKGLEWVASISSYYGYTSYADSVKGRFTISADTSKNTAYLQMNSLRAEDTAVYYCARYWHGALDYWGQGTLVTVSS
VL: DIQMTQSPSSLSASVGDRVTITCRASQSVSSAVAWYQQKPGKAPKLLIYSASSLYSGVPSRFSGSRSGTDFTLTISSLQPEDFATYYCQQGYFTYLFTFGQGTKVEIK
notes: as for B3
With B4, in experiment [4], the koff was found to be 0.000218 s⁻¹ and the kon amounted to 122000 M⁻¹ s⁻¹.

B5: phage-displayed Fab N1/ModF/1 (Fab, V domains shown)
VH: EVQLVESGGGLVQPGGSLRLSCAASGFNLYSSYMHWVRQAPGKGLEWVAYISPSYSYTYYADSVKGRFTISADTSKNTAYLQMNSLRAEDTAVYYCARWGHSPSGVGWYGALDYWGQGTLVTVSS
VL: DIQMTQSPSSLSASVGDRVTITCRASQSVSSAVAWYQQKPGKAPKLLIYSASSLYSGVPSRFSGSRSGTDFTLTISSLQPEDFATYYCQQPSSHSAALITFGQGTKVEIK
notes: light chain on the modified trastuzumab framework of the Modified-F library (template: anti-MBP Fab phagemid of Library-F, Persson et al., 2013); CDRs L1 and L2 fixed; Fab heavy chain on the modified trastuzumab framework of the Modified-F library; The Modified-F library uses an M13 system that allows bivalent Fab display
On to B5, for which the binding result in experiment [5] is “binds”.

B6: Fab N1/ModF/5 (Fab, V domains shown)
VH: EVQLVESGGGLVQPGGSLRLSCAASGFNISSSYMHWVRQAPGKGLEWVASIYSYSGSTYYADSVKGRFTISADTSKNTAYLQMNSLRAEDTAVYYCARSGYSGVSGSVYSYWPFYGLDYWGQGTLVTVSS
VL: DIQMTQSPSSLSASVGDRVTITCRASQSVSSAVAWYQQKPGKAPKLLIYSASSLYSGVPSRFSGSRSGTDFTLTISSLQPEDFATYYCQQGPYHGYSLITFGQGTKVEIK
notes: Modified-F library Fab on a modified trastuzumab framework; Modified-F library Fab on a modified trastuzumab framework, CDRs L1 and L2 fixed; The Fab has a His tag (detected with anti-HIS antibody and biosensors); Template phagemid derived from the anti-MBP Fab of Library-F (Persson et al., 2013); source: E. coli BL21, purified (Protein-L resin)
B6: in experiment [4], the koff is 8.15e-05 s⁻¹ and the kon was determined as 124000 M⁻¹ s⁻¹.

B7: Fab N1/ModF/5 (purified soluble Fab) (Fab, V domains shown)
VH: EVQLVESGGGLVQPGGSLRLSCAASGFNISSSYMHWVRQAPGKGLEWVASIYSYSGSTYYADSVKGRFTISADTSKNTAYLQMNSLRAEDTAVYYCARSGYSGVSGSVYSYWPFYGLDYWGQGTLVTVSS
VL: DIQMTQSPSSLSASVGDRVTITCRASQSVSSAVAWYQQKPGKAPKLLIYSASSLYSGVPSRFSGSRSGTDFTLTISSLQPEDFATYYCQQGPYHGYSLITFGQGTKVEIK
notes: light chain on the modified trastuzumab framework of the Modified-F library (template: anti-MBP Fab phagemid of Library-F, Persson et al., 2013); CDRs L1 and L2 fixed; Fab heavy chain on the modified trastuzumab framework of the Modified-F library; long CDRH3; The Fab is detected by an anti-HIS antibody; source: E. coli BL21, purified (Protein-L resin)
As for B7, in experiment [1], the EC50 amounted to 2.4 nM. In experiment [2], the Kd was 0.68 nM.

B8: Fab N1/ModF/2 (Fab, V domains shown)
VH: EVQLVESGGGLVQPGGSLRLSCAASGFNLYSSYIHWVRQAPGKGLEWVAYISPYSGSTYYADSVKGRFTISADTSKNTAYLQMNSLRAEDTAVYYCARYGYAYHPYHSGYWYGALDYWGQGTLVTVSS
VL: DIQMTQSPSSLSASVGDRVTITCRASQSVSSAVAWYQQKPGKAPKLLIYSASSLYSGVPSRFSGSRSGTDFTLTISSLQPEDFATYYCQQVSAGYGPPITFGQGTKVEIK
notes: as for B6
For the molecule B8, in experiment [4], the koff worked out at 1.91e-05 s⁻¹ and the association rate constant (kon) stood at 158000 M⁻¹ s⁻¹.

B9: Fab N1/ModF/2 (purified soluble Fab) (Fab, V domains shown)
VH: EVQLVESGGGLVQPGGSLRLSCAASGFNLYSSYIHWVRQAPGKGLEWVAYISPYSGSTYYADSVKGRFTISADTSKNTAYLQMNSLRAEDTAVYYCARYGYAYHPYHSGYWYGALDYWGQGTLVTVSS
VL: DIQMTQSPSSLSASVGDRVTITCRASQSVSSAVAWYQQKPGKAPKLLIYSASSLYSGVPSRFSGSRSGTDFTLTISSLQPEDFATYYCQQVSAGYGPPITFGQGTKVEIK
notes: as for B7
As for B9, in experiment [1], the EC50 was 1.7 nM. The Kd in experiment [2] amounted to 0.16 nM.

Source of the values: article PMC9381698, “Generation of synthetic antibody fragments with optimal complementarity determining region lengths for Notch-1 recognition” (Frontiers in Microbiology, 2022).
